The text below walks through data of patent publication US20210253711A1.

The test deals with MICA antigen of Table 2 (purified 6×His-MICA*08 or 6×His-MICA*04) (UniProt Q29983). Briefly: BLI (Octet Red96), mAb captured on anti-mouse IgG Fc biosensors, His-tagged MICA in solution, 1:1 model.

B1: 16F10.C12 (antibody, V domains shown)
VH: EVQLQESGPGLVAPSQSLSITCTVSGFSLTAFGVNWVRQPPGKGLEWLGMIWGDGNTDYNSTLRSRLSISKDNSKSQVFLKLNSLQTDDTARYFCARETYYGNYAGLGYWGQGTLVTVSA
VL: QIVLTQSPAIMSASIGERVTMTCTASSSVSSNYLHWYQQKPRSSPKLWIYTTSNLASGVPTRFSGSGSGTSYSLTISSMEAEDAATYYCHQFHRSPFTFGSGTKLEIK
Turning to B1, the dissociation constant (Kd) was 6.45 nM, the koff amounted to 0.000548 s⁻¹ and the kon was determined as 93300 M⁻¹ s⁻¹.

B2: 3F9.E4 (antibody, V domains shown)
VH: EVQLQESGEGLVKPGGSLKLSCAASGFTFSNYAMSWVRQTPEKRLEWVAYISPGGDYIYYADTVKGRFTISRDNARNTLYLQMSSLKSEDTAMYYCTTDRRHYGSYAMDYWGQGISVTVSS
VL: DIVMTQAAPSVPVTPGESVSISCRSSKSLLHSNGNTYLYWFLQRPGQSPQLLIYRMSNLASGVPDRFSGSGSGTAFTLRISRVEAEDVGVYYCMQHLEYPFTFGSGTKLEIK
For the molecule B2, the equilibrium dissociation constant (Kd) turned out to be 1.18 nM, the koff turned out to be 0.000421 s⁻¹ and the kon was 383000 M⁻¹ s⁻¹.
